Data from patent publication US20080292620A1.

Columns and labels:
[1] = biological target: T1, human prolactin receptor (PRLR), full length on cells (human) (UniProt P16471); experiment: cell-based or functional assay
T1 sequence: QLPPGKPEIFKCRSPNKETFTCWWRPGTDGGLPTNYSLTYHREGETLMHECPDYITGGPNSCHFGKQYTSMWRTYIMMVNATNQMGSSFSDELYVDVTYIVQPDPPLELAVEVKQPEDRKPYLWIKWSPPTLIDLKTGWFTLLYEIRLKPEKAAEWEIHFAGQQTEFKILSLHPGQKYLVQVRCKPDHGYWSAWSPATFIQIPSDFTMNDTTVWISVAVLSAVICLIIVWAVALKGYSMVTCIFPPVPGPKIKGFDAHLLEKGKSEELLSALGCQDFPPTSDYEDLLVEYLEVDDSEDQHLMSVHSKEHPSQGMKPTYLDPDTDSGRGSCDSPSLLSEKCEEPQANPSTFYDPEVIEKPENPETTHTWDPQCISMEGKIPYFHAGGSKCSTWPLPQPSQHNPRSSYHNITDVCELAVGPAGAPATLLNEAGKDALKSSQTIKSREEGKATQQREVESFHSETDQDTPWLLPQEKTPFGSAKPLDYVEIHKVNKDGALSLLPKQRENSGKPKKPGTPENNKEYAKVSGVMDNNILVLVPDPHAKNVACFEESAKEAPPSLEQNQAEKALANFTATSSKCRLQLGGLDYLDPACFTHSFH

[2] = biological target: recombinant extracellular domain (ECD) of the human prolactin receptor (PRLR) (human) (UniProt P16471); experiment: Biacore 2000 SPR, antibody captured, PRLR ECD injected
[3] = biological target: recombinant extracellular domain (ECD) of the human prolactin receptor (PRLR) (human) (UniProt P16471); experiment: Biacore SPR, procedures similar to Table 6, PRLR ECD

B1: XHA.06.983 (antibody, from another filing, V domains shown)
VH: DVQLVESGGGLVQPGGSRKLSCAASGFAFSSFGMQWVRQAPEKGLEWVAYISSGSSTIYYADTVKGRFTISRDNPKNTLFLQMTSLRSEDTAMYYCVRSGRDYWGQGTSVTVSS
VL: SIVMTQTPKFLLVSAGDRVTITCKASQGVSNDVAWFQQKPGQSPKLLIYSASTRYTGVPDRLTGSGYGTDFTFTINTVQAEDLAVYFCQQDYTSPTFGGGTKLEIKR
Q: Which results are given for B1?
A: Proliferation inhibition IC50 for BaF3/PRLR [1]: 0.1; pERK1/2 inhibition IC50 (prolactin-stimulated T47D cells) [1]: 0.11; Kd [2]: 0.1 nM; Kd [3]: 0.043 nM

B2: XHA.06.642 (antibody, from another filing, V domains shown)
VH: EVQLVESGGDLVKPGGSLKLSCAVSGFTFSSYGMSWVRQTPDKRLEWVATVSSGGTYTYYPDSVKGRFTISRDNAKNTLYLQMSSLKSEDSAMYYCARHRGNYYATYYYAMDYWGQGTSVTVSS
VL: DIVLTQSPASLAVSLGQGATISCRASKSVSTSGYTYMHWYQQKPGQPPKLLIYLASNLESGVPARFSGSGSGTDFTLNIHPVEEEDAATYYCQHSGELPPSFGGGTKLEIKR
Q: B2 was tested. Which Kd [3] did it give?
A: 0.934 nM
